Target: T1, Macrophage stimulating protein receptor (RON - Recepteur d' Origine Nantais), human (human, UniProt Q04912 25-1400)
T1 construct: whole, on cells; Endogenous RON of human cancer cell lines (HCT116, HT29, T47D and others) or RON transfected into H1299 cells; In Western blots and immunoprecipitations it comes from cell lysates; also called human RON receptor tyrosine kinase; MST1R
Test: immunofluorescence on PFA fixed HCT116 cells
Method: Cells were stained with DAPI for nuclear visualization and anti-mouse conjugate to 488 was used as a secondary mouse antibody.
The 4% paraformaldehyde fixed HCT116 and TKO cells were subjected to permeabilization with 0.4% Triton X-100 for 20 minutes. After rinsing with PBS, cells were blocked with 5% BSA in PBSTritonX (PBSTX) for 20 min, followed by overnight incubation in hybridoma supernatant at 4° C. IgGs were detected using 1:1000 […] Alexaflor 488 Donkey anti-mouse IgG conjugated (Life technologies) in PBSTX with 1% BSA. Subsequently, cells were counterstained with DAPI, and viewed with Incell Analyzer (GE Healthcare).

binding result: binds
B1: 7G8 (antibody, V domains shown)
VH: EVQLEQSGGGLVQPGGSLKLSCAASGFTFNTYTMSWVRQTPEKRLEWVAYISNGGGSTYYPDTVKGRFTISRDNAKNTLYLQMSSLKSEDTAMYYCARGYRYAAMDYWGQGTSVTVSS
VL: DIVMTQTTATLSVTPGDGVSLSCRASQSINNNLHWYQQKSHESPRLLIKFASQSISGIPSRFSGSGSGTDFTLSINSVETEDFGMYFCQQSNSWPLTFGAGTKLELK
notes: Mouse monoclonal antibody from a hybridoma (Balb/c mice immunised with truncated human RON-GST); kappa light chain; Tested as hybridoma supernatant or purified mAb; also called mAb 7G8; anti-RON mouse mAb 7G8

From US20190194309A1 (AGENCY FOR SCIENCE TECHNOLOGY AND RESEARCH, published 2019)
